From patent US20220177587A1, “METHODS AND USES OF VARIANT CD80 FUSION PROTEINS AND RELATED CONSTRUCTS” (Alpine Immune Sciences, Inc., priority 2018, published 2022)
Residue numbers refer to the chain shown, from its start. Names and notes keep the numbering of the source.

B1: D46V/M47I/A71G (protein)
chain: VIHVTKEVKEVATLSCGHNVSVEELAQTRIYWQKEKKMVLTMMSGVINIWPEYKNRTIFDITNNLSIVILGLRPSDEGTYECVVLKYEKDAFKREHLAEVTLSVKAD
B2: M47I/A71G (protein)
chain: B1 chain with V46D
B3: E35D/M43I/D46E/A71G/L85M (protein)
chain: B1 chain with E35D, M43I, V46E, I47M, L85M
B4: H18Y/E35D/M47L/A71G/A91S (protein)
chain: B1 chain with H18Y, E35D, V46D, I47L, A91S
B5: E35D/M47I/N48K/I61F (protein)
chain: B1 chain with E35D, V46D, N48K, I61F, G71A
B6: M43I/M47L/A71G (protein)
chain: B1 chain with M43I, V46D, I47L
B7: E35D/M47V/V68M/L85M (protein, UniProt P33681 35-288, looked up, variant E35D M47V V68M L85M)
T-lymphocyte activation …: VIHVTKEVKEVATLSCGHNVSVEELAQTRIYWQKDKKMVLTMMSGDVNIWPEYKNRTIFDITNNLSIMILALRPSDEGTYECVVMKYEKDAFKREHLAEVTLSVKADFPTPSISDFEIPTSNIRRIICSTSGGFPEPHLSWLENGEELNAINTTVSQDPETELYAVSSKLDFNMTTNHSFMCLIKYGHLRVNQTFNWNTTKQEHFPDNLLPSWAITLISVNGIFVICCLTYCFAPRCRERRRNERLRRESVRPV
B8: H18Y/E35D/M47L/V68M/E95V/L97Q (protein, UniProt P33681 35-288, looked up, variant H18Y E35D M47L V68M E95V L97Q)
T-lymphocyte activation …: B7 T-lymphocyte activation … with H18Y, V47L, M85L, E95V, L97Q
B9: H18Y/E35D/M47V/V68M/L85M (protein, UniProt P33681 35-288, looked up, variant H18Y E35D M47V V68M L85M)
T-lymphocyte activation …: B7 T-lymphocyte activation … with H18Y

Assays:
huPD-L1 = huPD-L1 (Homo sapiens, UniProt Q9NZQ7); assay: Flow binding to CHO cells stably expressing PD-L1; design: huCTLA4 and huPD-L1, full-length mammalian surface expression constructs were generated; expressed in transfected cells; host or cells: CHO cells, lentiviral transduction, sorted to >98% purity; conditions: Table E10; for PD-L1 MFI at 33.3 nM: CHO cells stably expressing PD-L1; for PD-L1 MFI at 33.3 nM / PD-L1 Fold change to WT CD80: 33.3 nM; for PD-L1 Fold change to WT CD80: relative to CD80 WT IgV-Fc; for Ratio of PDL1:CD28: binding to PD-L1 compared to binding to CD28
Sequence of huPD-L1 (Q9NZQ7 19-290): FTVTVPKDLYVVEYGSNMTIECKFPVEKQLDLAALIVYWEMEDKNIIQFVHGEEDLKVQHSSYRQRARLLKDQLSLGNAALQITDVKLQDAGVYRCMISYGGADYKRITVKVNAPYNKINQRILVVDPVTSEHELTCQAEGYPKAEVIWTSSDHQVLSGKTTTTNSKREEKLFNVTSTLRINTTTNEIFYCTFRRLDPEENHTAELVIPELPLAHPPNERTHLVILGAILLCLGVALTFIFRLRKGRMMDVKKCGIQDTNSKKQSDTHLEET
Method in brief: (§1)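 Fusion proteins bound to CHO cells stably expressing CTLA4 or PD-L1, or to Jurkat/IL2 reporter cells with endogenous CD28, for 45 min on ice after blocking in PBS/1% BSA. Detection with PE anti-human Fc by flow cytometry; PE MFI per cell type and binding EC50 determined.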

CD28 [1] = target: T1, CD28 (Homo sapiens, UniProt P10747); assay: Flow binding to Jurkat/IL2 reporter cells (CD28); design: host or cells: Jurkat cells expressing an IL-2-luciferase reporter; conditions: 33.3 nM; for CD28 MFI at 33.3 nM: Jurkats (CD28); for CD28 Fold change to WT CD80: relative to CD80 WT IgV-Fc
Method in brief: as §1

huCTLA4 = huCTLA4 (Homo sapiens, UniProt P16410); assay: Flow binding to CHO cells stably expressing CTLA4; design: huCTLA4 and huPD-L1, full-length mammalian surface expression constructs were generated; expressed in transfected cells; host or cells: CHO cells, lentiviral transduction, sorted to >98% purity; conditions: 33.3 nM; for CTLA4 MFI at 33.3 nM: CHO cells stably expressing CTLA4; for CTLA4 Fold change to WT CD80: relative to CD80 WT IgV-Fc
Sequence of huCTLA4 (P16410 36-223): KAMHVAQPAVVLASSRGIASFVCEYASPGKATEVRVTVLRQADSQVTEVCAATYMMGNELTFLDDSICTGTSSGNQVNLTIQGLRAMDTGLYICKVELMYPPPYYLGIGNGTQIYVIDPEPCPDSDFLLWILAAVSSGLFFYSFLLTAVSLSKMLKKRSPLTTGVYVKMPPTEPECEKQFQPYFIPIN
Method in brief: as §1

CD28 [2] = target: T1, CD28; assay: Jurkat/IL2 + CHO/OKT3 +/- PD-L1 reporter assay: PD-L1-dependent CD28 costimulation; type: cell-based; design: host or cells: Jurkat cells expressing an IL-2-luciferase reporter; conditions: Jurkat/IL2 + CHO/OKT3/PD-L1, 5.0 nM
Method in brief: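 Jurkat reporter cells (100,000/well) preincubated 15 min at room temperature with test protein, then cocultured 5 h at 37 °C with CHO aAPCs bearing anti-CD3 scFv (OKT3) with or without PD-L1. Luciferase luminescence (RLU) read after lysis-substrate addition.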

| PD-L1 MFI at 33.3 nM (huPD-L1) | PD-L1 Fold change to WT CD80 (huPD-L1) | Ratio of PDL1:CD28 (huPD-L1) | CD28 MFI at 33.3 nM (CD28 [1]; Table E10) | CD28 Fold change to WT CD80 (CD28 [1]; Table E10) | CTLA4 MFI at 33.3 nM (huCTLA4; Table E10) | CTLA4 Fold change to WT CD80 (huCTLA4; Table E10) | Fold Increase over WT CD80-IgV-Fe (CD28 [2]; Table E12) | Relative Luciferase Units (RLU), CD80 Cone 5.0 nM (CD28 [2]; Table E12) [RLU] | CD28 MFI at 33.3 nM (CD28 [1]; Table E11) | CTLA4 MFI at 33.3 nM (huCTLA4; Table E11) | Relative Luciferase Units (RLU), CD80 Cone 5.0 nM (CD28 [2]; Table E13) [RLU] | CD28 MFI at 33.3 nM (CD28 [1]; Table E16, consensus variants) | CTLA4 MFI at 33.3 nM (huCTLA4; Table E16, consensus variants) | Relative Luciferase Units (RLU), CD80 Cone 5.0 nM (CD28 [2]; Table E17, consensus variants) [RLU] | Molecule |
| --- | --- | --- | --- | --- | --- | --- | --- | --- | --- | --- | --- | --- | --- | --- | --- |
| 7328 | 104.2 | 6 | 1325 | 20.1 | 28420 | 14.8 | 4.0 | 1601 |  |  |  |  |  |  | B1 |
| 5097 | 72.5 | 6 | 823 | 12.5 | 27768 | 14.5 | 4.4 | 1762 |  |  |  |  |  |  | B2 |
| 7138 | 101.5 | 36 | 200 | 3.0 | 26878 | 14.0 | 3.7 | 1475 |  |  |  |  |  |  | B3 |
| 7582 | 107.9 | 14 | 528 | 8.0 | 24218 | 12.6 | 4.7 | 1898 |  |  |  |  |  |  | B4 |
| 5627 | 80.0 | 7 | 816 | 12.4 | 25859 | 13.5 | 5.2 | 2078 |  |  |  |  |  |  | B5 |
| 7763 | 110.4 | 8 | 1000 | 15.2 | 23292 | 12.2 | 4.1 | 1641 |  |  |  |  |  |  | B6 |
|  |  |  |  |  |  |  |  |  | 201 | 15997 | 1167 |  |  |  | B7 |
|  |  |  |  |  |  |  |  |  | 14.5 | 20475 | 225 | 2602 | 18022 |  | B8 |
|  |  |  |  |  |  |  |  |  | 373 | 18367 | 1013 | 1387 | 19306 | 2575 | B9 |
